These results are taken from article PMC2172828 (The Journal of Cell Biology, 2003).

In the assay the target is T1, GST–Cdc15p(1–405) (S. pombe, UniProt Q09822 1-405).
T1 sequence (looked up): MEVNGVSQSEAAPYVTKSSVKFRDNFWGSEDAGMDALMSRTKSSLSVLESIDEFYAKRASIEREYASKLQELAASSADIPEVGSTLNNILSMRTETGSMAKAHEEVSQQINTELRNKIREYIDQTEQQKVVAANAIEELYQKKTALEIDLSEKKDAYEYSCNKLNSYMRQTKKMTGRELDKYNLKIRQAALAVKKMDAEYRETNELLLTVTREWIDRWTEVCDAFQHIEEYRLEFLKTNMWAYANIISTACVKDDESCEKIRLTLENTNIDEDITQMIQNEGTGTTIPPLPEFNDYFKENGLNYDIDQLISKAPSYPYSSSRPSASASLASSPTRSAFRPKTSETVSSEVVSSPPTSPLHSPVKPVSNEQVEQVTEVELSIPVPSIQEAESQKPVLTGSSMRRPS
The assay is described as follows: pull-down.

B1: MBP–Myo1p(727–1041) (domain or fragment, S. pombe, UniProt Q9Y7Z8 727-1041, looked up)
chain: ATRIQRAWRSYVRRRSEAAACIQKLWNRNKVNMELERVRNEGTKLLQGKKQRRRYSILGSRKFYGDYLSASKPNGTLWNTCGLSQNDHVIFSMRCEVLVHKLGRTSKPSPRQLVLTKKNLYLVITKIVDQKLTQQVEKKFAVSSIDSVGLTNLQDDWVAIRNKSSQNGDMFLRCFFKTEFITTLKRINRNIQVIVGPTIQYCRKPGKVQTVKTAKDETTKDYDYYKSGTIHVGTGLPPTSKSKPFPRLATGGSTAAARGPRPVVQNKPAATKPVSMPAAKSKPAPMANPVSTAQQTQNRPPAPAMQARPNTTQAA
Turning to B1, the binding result is “binds”.
